Where a chain is given by its changes, count along the chain named.
T1: human TIGIT-Fc (human, UniProt Q495A1 22-141, limits assumed)
T1 construct: not shown: Fc; not described
T1 sequence (looked up): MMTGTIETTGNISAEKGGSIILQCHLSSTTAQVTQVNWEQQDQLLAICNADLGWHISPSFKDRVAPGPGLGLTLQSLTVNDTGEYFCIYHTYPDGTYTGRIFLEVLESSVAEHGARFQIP

B1: TIGIT-SC143 (Fc fusion)
VHH: EVQLVESGGGLVQPGGSLRLSCAASGFTLGYYVMGWFRQAPGKEREFVAAISASGTLRAYADSVEGRFTISADNSKNTAYLQMNSLKPEDTAVYYCARAELGYSYGSVDGYWGQGTLVTVSS
notes: VHH-Fc
B2: TIGIT-SC144 (Fc fusion)
VHH: EVQLVESGGGLVQPGGSLRLSCAASGFTLENNMMGWFRQAPGKEREFVAAISPSGTLRAYADSVKGRFTISADNSKNTAYLQMNSLKPEDTAVYYCAGIHDSGVPLGNWGQGTLVTVSS
notes: VHH-Fc
B3: TIGIT-SC145 (Fc fusion)
VHH: EVQLVESGGGLVQPGGSLRLSCAASGNTFSGGFTLGYYVMGWFRQAPGKEREFVAAISRSGTLKAYADGVKGRFTISADNSKNTAYLQMNSLKPEDTAVYYCARVEAYGDPLGYWGQGTLVTVSS
notes: VHH-Fc
B4: TIGIT-SC146 (Fc fusion)
VHH: EVQLVESGGGLVQPGGGLRLSCAASGFTLENNMMGWFRQAPGKEREFVAAISASGTLRAYADSVKGRFTISADNSKNTAYLQMNSLKPEDTAVYYCAKGGQAGPMAFYFDYWGQGTLVTVSS
notes: VHH-Fc
B5: TIGIT-SC147 (Fc fusion)
VHH: EVQLVESGGGLVQPGGSLRLSCAASGTITSAVFMGWFRQAPGKEREFVAAVIWRGGSLKSYADSVKGRFTISADNSKNTAYLQMNSLKPEDTAVYYCAKLAVAGNYYYYGMDVWGQGTLVTVSS
notes: VHH-Fc
B6: TIGIT-SC148 (Fc fusion)
VHH: EVQLVESGGGLVQPGGSLRLSCAASGDIGSINAMGWFRQAPGKEREFVAGIWRSGNLKAYADSVKGRFTISADNSKNTAYLQMSSLKPEDTAVYYCARGNIVVVPAAFVIWFDPWGQGTLVTVSS
notes: VHH-Fc
B7: TIGIT-SC158 (Fc fusion)
VHH: EVQLVESGGGLVQPGGSLRLSCAASGFTFSPSWMGWFRQAPGKEREWVASVLRGGYTWYADSVKGRFTISADNSKNTAYLQMNSLKPEDTAVYYCAREGRSSSPWFDPWGQGTLVTVSS
notes: VHH-Fc
B8: TIGIT-SC154 (Fc fusion)
VHH: EVQLVESGGGLVQPGGSLRLSCAASGFAFSSDWMGWFRQAPGKEREWVASVLRGGYTWYADSVKGRFTISADNSKNTAYLQMNSLKPEDTAVYYCAGDYRGFEMAFDPWGQGTLVTVSS
notes: VHH-Fc
B9: TIGIT-SC155 (Fc fusion)
VHH: B8 VHH with F27N, A28T, S31G, D32G, W33F
notes: VHH-Fc
B10: TIGIT-SC159 (Fc fusion)
VHH: B7 VHH with S30D, P31R
notes: VHH-Fc
B11: TIGIT-SC160 (Fc fusion)
VHH: B7 VHH with F27N, P31G, S32G, W33F
notes: VHH-Fc
B12: TIGIT-SC202 (Fc fusion)
VHH: EVQLVESGGGLVQPGGSLRLSCAASGFTFSPSWMGWFRQAPGKEREWVASVLRGGYTWYADSVKGRFTISADNSKNTAYLQMNSLKPEDTAVYYCTTDGGYSGIVGFAWGQGTLVTVSS
notes: VHH-Fc
B13: TIGIT-SC161 (Fc fusion)
VHH: EVQLVESGGGLVQPGGSLRLSCAASGFTFSPSWMGWFRQAPGKEREWVASVLRGGYTWYADSVKGRFTISADNSKNTAYLQMNSLKPEDTAVYYCTTDRAIGVRPLFDHWGQGTLVTVSS
notes: VHH-Fc
B14: TIGIT-SC179 (Fc fusion)
VHH: EVQLVESGGGLVQPGGSLRLSCAASGFTFSPSWMGWFRQAPGKEREWVASVLRGGYTWYADSVKGRFTISADNSKNTAYLQMNSLKPEDTAVYYCASEVASGETDYWGQGTLVTVSS
notes: VHH-Fc
B15: TIGIT-SC163 (Fc fusion)
VHH: B14 VHH with S30D, P31R, S97T, E98D, V99K, A100R, S101G, G102P, E103H, T104P
notes: VHH-Fc
B16: TIGIT-SC166 (Fc fusion)
VHH: B14 VHH with S30D, P31R, S97R, V99G, A100S, S101G, G102Y, E103A, T104S
notes: VHH-Fc
B17: TIGIT-SC168 (Fc fusion)
VHH: EVQLVESGGGLVQPGGSLRLSCAASGFTFDRSWMGWFRQAPGKEREWVASVLRGGYAWYADSVKGRFTISADNSKNTAYLQMSSLKPEDTAVYYCAREGSGYASDYWGQGTLVTVSS
notes: VHH-Fc
B18: TIGIT-SC178 (Fc fusion)
VHH: B14 VHH with F29L
notes: VHH-Fc
B19: TIGIT-SC184 (Fc fusion)
VHH: EVQLVESGGGLVQPGGSLRLSCAASGFTFSPSWMGWFRQAPGKEREWVASVLRGGYTWYADSVKGRFTISADNSKNTAYLQMNSLKPEDTAVYYCTTDRGYNWNYDWGQGTLVTVSS
notes: VHH-Fc
B20: TIGIT-SC167 (Fc fusion)
VHH: EVQLVESGGGLVQPGGSLRLSCAASGRTFSFMGWFRQAPGKEREWVASVLRGGYTWYADSVKGRFTISADNSKNTAYLQMNSLKPEDTAVYYCAREGSGYASDYWGQGTLVTVSS
notes: VHH-Fc
B21: TIGIT-SC169 (Fc fusion)
VHH: EVQLVESGGGLVQPGGSLRLSCAASGFTLNDYAMGWFRQAPGKERELVAWIARYDGSTLYADSVKGRFTISADNSKNTAYLQMNSLKPEDTAVYYCTTELRWELQQPDYWGQGTLVTVSS
notes: VHH-Fc
B22: TIGIT-SC174 (Fc fusion)
VHH: EVQLVESGGGLVQPGGSLRLSCAASGFLFDSYAMGWFRQAPGKEREFVAAISWSGGSTYYADSVKGRFTISADNSKNTAYLQMNSLKPEDTAVYYCTTDALRFLEWPWWGQGTLVTVSS
notes: VHH-Fc
B23: TIGIT-SC176 (Fc fusion)
VHH: EVQLVESGGGLVQPGGSLRLSCAASGFTFSPSWMGWFRQAPGKEREWVASVLRGGYTWYADSVKGRFTISADNSKNTAYLQMNSLKPEDTAVYYCVHEDSVAAHFDFWGQGTLVTVSS
notes: VHH-Fc
B24: TIGIT-SC177 (Fc fusion)
VHH: B23 VHH with V96A, H97T, E98D, D99R, S100G, V101P, A103M, H104V, D106N, F107L
notes: VHH-Fc
B25: TIGIT-SC180 (Fc fusion)
VHH: EVQLVESGGGLVQPGGSLRLSCAASGFTLNDYAMGWFRQAPGKERELVAWIARYDGSTLYADSVKGRFTISADNSKNTAYLQMNSLKPEDTAVYYCASEVASGETDYWGQGTLVTVSS
notes: VHH-Fc
B26: TIGIT-SC181 (Fc fusion)
VHH: EVQLVESGGGLVQPGGSLRLSCAASGFTLSSNWMGWFRQAPGKEREFVASVLRGGYTWYADSVKGRFTISADNSKNTAYLQMNSLKPEDTAVYYCARDAYYYGLWGQGTLVTVSS
notes: VHH-Fc
B27: TIGIT-SC182 (Fc fusion)
VHH: EVQLVESGGGLVQPGGSLRLSCAASGFTFSSSSMGWFRQAPGKEREFVAAINWSGGSTSYADSVKGRFTISADNSKNTAYLQMNSPKPEDTAVYYCAKDRSYSFDYWGQGTLVTVSS
notes: VHH-Fc
B28: TIGIT-SC186 (Fc fusion)
VHH: B19 VHH with F27N, P31G, S32G, W33F, W47Y, A78T
notes: VHH-Fc
B29: TIGIT-SC190 (Fc fusion)
VHH: EVQLVESGGGLVQPGGSLRLSCAASGFTFDRSWMGWFRQAPGKEREWVASVLRGGYTWYADSVKGRFTISADNSKNTAYLQMNSLKPEDTAVYYCVTDVGAPDYWGQGTLVTVSS
notes: VHH-Fc
B30: TIGIT-SC192 (Fc fusion)
VHH: EVQLVESGGGLVQPGGSLRLSCAASGFTFSVYWMGWFRQAPGKEREFVAAISRSGTLKEYADSVKGRFTISADNSKNTAYLQMNSLKPEDTAVYYCARGSGWPKIHFDYWGQGTLVTVSS
notes: VHH-Fc
B31: TIGIT-SC199 (Fc fusion)
VHH: EVQLVESGGGLVQPGGSLRLSCAASGFSSAQYAMGWFRQAPGKERELVASIDSEGRTNYADSVKGRFTISADNSKNTAYLQMNSLKPEDTAVYYCTRDGGFDPWGQGTLVTVSS
notes: VHH-Fc
B32: TIGIT-SC204 (Fc fusion)
VHH: EVQLVESGGGLVQPGGSLRLSCAASGFLFNSYWMVWFRQAPGKEREFVAAIWRSGTLKAYADSVKGRFTISADNSKNTAYLQMNSLKPEDTAVYYCAADVNYGSTWRNWGQGTLVTVSS
notes: VHH-Fc
B33: TIGIT-SC205 (Fc fusion)
VHH: EVQLVESGGGLVQPGGSLRLSCAASGFTFDRSWMGWFRQAPGKEREFVAAIWRSGTLKAYADSVKGRFTISADNGKNTAYLQMNSLKPEDTAVYYCAEGGTTAWGWFVPWGQGTLVTVSS
notes: VHH-Fc
B34: TIGIT-SC206 (Fc fusion)
VHH: EVQLVESGGGLVQPGGSLRLSCAASGFLFDSYVMGWFRQAPGKEREFVAAIWRSGTLKAYADSVKGRFTISADNSKNTAYLQMNGLKPEDTAVYYCAGVGTDYGDYLFNYWGQGTLVTVSS
notes: VHH-Fc
B35: TIGIT-SC208 (Fc fusion)
VHH: EVQLVESGGGLVQPGGSLRLSCAASGFLFDSYVMGWFRQAPGKEREFVAAIWRSGTLKAYADSVKGRFTISADNSKNTEYLQMNSLKPEDTAVYYCARDDYGDTRRYFQHWGQGTLVTVSS
notes: VHH-Fc
B36: TIGIT-SC207 (Fc fusion)
VHH: B35 VHH with L28A, D30S
notes: VHH-Fc

Target: T1, human TIGIT-Fc
Assay: CD155 competition ELISA, single point; also: test concentration or dose not given here
Experimental: TIGIT/CD155 inhibition of VHH-Fcs were assessed using an ELISA assay (Table 10B). Briefly, human TIGIT-Fc was coated on a plate & then incubated with VHH-Fcs and human CD155-biotin. Bound CD155-biotin was detected using a streptavidin-HRP conjugate visualized with TMB. Strong inhibitors from the single point screen were titrated to determine EC50 (Table 10C).

Binder | OD (450 nm) [OD]
B1 | 0.626
B2 | 0.686
B3 | 0.432
B4 | 0.423
B5 | 0.878
B6 | 0.52
B7 | 0.472
B8 | 0.465
B9 | 0.449
B10 | 0.749
B11 | 0.467
B12 | 0.545
B13 | 0.451
B14 | 0.591
B15 | 0.328
B16 | 0.328
B17 | 0.306
B18 | 0.494

Binder | OD (450 nm) [OD]
B19 | 0.534
B20 | 0.279
B21 | 0.679
B22 | 0.532
B23 | 0.57
B24 | 0.507
B25 | 0.639
B26 | 0.554
B27 | 0.607
B28 | 0.576
B29 | 0.533
B30 | 0.487
B31 | 0.503
B32 | 0.449
B33 | 0.441
B34 | 0.517
B35 | 0.544
B36 | 0.504

From US20260184782A1 (TWIST BIOSCIENCE, published 2026)
